Measured values published in the supplement of paper PMC10065799, “High-throughput profiling of sequence recognition by tyrosine kinases and SH2 domains using bacterial peptide display” (eLife, 2023).

Biological target: Fes (UniProt P07332)
Experiment: phosphorylation enrichment, bacterial display (enrichment ratio); higher = better substrate or ligand; peptides without Tyr show the background
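Also: 11-residue human phosphosite peptides and single-mutation variants displayed on the E. coli surface, counted by deep sequencing, each peptide's frequency after selection divided by its frequency in the unselected input library; frequency after pTyr selection over input frequency; kinase dosed for 20-30% of maximal phosphorylation in three min.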

Chain of Fes (P07332 whole entry, looked up): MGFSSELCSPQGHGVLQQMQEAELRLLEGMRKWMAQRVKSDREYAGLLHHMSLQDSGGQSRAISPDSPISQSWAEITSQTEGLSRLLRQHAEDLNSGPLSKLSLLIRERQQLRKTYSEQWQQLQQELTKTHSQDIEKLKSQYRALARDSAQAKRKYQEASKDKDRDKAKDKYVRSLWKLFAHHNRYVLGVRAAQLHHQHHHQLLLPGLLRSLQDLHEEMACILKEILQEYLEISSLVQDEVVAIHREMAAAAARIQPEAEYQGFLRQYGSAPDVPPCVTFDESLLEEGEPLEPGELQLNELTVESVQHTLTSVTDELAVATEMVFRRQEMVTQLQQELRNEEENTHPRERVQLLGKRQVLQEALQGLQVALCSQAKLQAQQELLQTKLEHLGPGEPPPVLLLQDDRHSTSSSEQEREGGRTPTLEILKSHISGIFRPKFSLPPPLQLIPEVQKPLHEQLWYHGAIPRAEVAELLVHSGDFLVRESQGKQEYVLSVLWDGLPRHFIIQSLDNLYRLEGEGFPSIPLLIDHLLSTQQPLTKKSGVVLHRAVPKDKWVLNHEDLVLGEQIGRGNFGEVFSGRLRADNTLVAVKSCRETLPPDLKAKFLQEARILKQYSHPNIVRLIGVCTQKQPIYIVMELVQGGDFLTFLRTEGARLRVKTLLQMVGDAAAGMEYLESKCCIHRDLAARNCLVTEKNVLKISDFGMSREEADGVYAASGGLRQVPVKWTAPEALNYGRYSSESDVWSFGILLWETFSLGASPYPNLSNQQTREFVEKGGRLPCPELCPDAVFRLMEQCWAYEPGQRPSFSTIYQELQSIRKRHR

Going from AKLKDYFIFNK [CCDC42_Y149_YF] to YTGDIYSSSNL [LZTR1_Y141_N143S], the phosphorylation enrichment falls from 0.783 to 0.74.

Compared with VIEQRYNETWL [SLC2A4_Y56_S55R], GIVEDYRPRFF [ACVRL1_Y421_P424R_YF] is lower in phosphorylation enrichment: 1.05 for the first, 0.814 for the second.

Compared with SILAVYSKDIY [PANK2_Y400_N404I], KCCCIYEKPRS [PPP1R11_Y64_A69S] is higher in phosphorylation enrichment: 0.924 for the first, 1.01 for the second.

Compared with YEEDSYVKRSQ [RET_Y905], SAPDSYIRIGN [SLC38A4_Y27_G29R] is lower in phosphorylation enrichment: 1.23 for the first, 0.796 for the second.

Compared with LFSDHYSPSGR [TMPRSS12_Y23_YF], CRAVKYLQMVG [AVPR2_Y117] is higher in phosphorylation enrichment: 0.574 for the first, 0.739 for the second.

Compared with LAIERYVVVSK [RHO_Y136_C140S], NFFEFYVDDPL [GCHFR_Y48_P53L_YF] is higher in phosphorylation enrichment: 1.04 for the first, 1.11 for the second.

First: MFCAGYDTKQE [F10_Y407]
Second: FSGQVYRQRRK [TH_Y230_D227G]
The phosphorylation enrichment of the first is higher: 1.47 for the first, 0.697 for the second.

Compared with IGLHAYGDQFR [IDH1_Y135_R132L_YF], MIHSAYALGGL [CPS1_Y590_R587H] is lower in phosphorylation enrichment: 0.799 for the first, 0.592 for the second.

Going from FGVVGYLAIMF [RNF175_Y155] to NVGGKYSFLKV [GRM3_Y478_YF], the phosphorylation enrichment falls from 1.44 to 0.739.

Compared with DASAVYLRDFQ [PLCG2_Y242_H244R], DFPIGYPSFLA [TBCK_Y153_YF] is higher in phosphorylation enrichment: 0.963 for the first, 1.07 for the second.

First: KLSFSYGWALQ [ALDOB_Y302_R304W]
Second: RIGRKYKRVRF [F8_Y442_K444R]
The phosphorylation enrichment of the first is lower: 1.8 for the first, 3.31 for the second.

Tested on: Fer (mouse)
Experiment: as above

First: AKLKDYFIFNK [CCDC42_Y149_YF]
Second: YTGDIYSSSNL [LZTR1_Y141_N143S]
The phosphorylation enrichment of the first is lower: 0.487 for the first, 2.91 for the second.

First: VIEQRYNETWL [SLC2A4_Y56_S55R]
Second: GIVEDYRPRFF [ACVRL1_Y421_P424R_YF]
The phosphorylation enrichment of the first is lower: 0.457 for the first, 0.513 for the second.

Going from SILAVYSKDIY [PANK2_Y400_N404I] to KCCCIYEKPRS [PPP1R11_Y64_A69S], the phosphorylation enrichment rises from 0.45 to 7.18.

Going from YEEDSYVKRSQ [RET_Y905] to SAPDSYIRIGN [SLC38A4_Y27_G29R], the phosphorylation enrichment falls from 0.529 to 0.35.

First: LFSDHYSPSGR [TMPRSS12_Y23_YF]
Second: CRAVKYLQMVG [AVPR2_Y117]
The phosphorylation enrichment of the first is lower: 0.351 for the first, 0.443 for the second.

First: LAIERYVVVSK [RHO_Y136_C140S]
Second: NFFEFYVDDPL [GCHFR_Y48_P53L_YF]
The phosphorylation enrichment of the first is higher: 0.459 for the first, 0.428 for the second.

Going from MFCAGYDTKQE [F10_Y407] to FSGQVYRQRRK [TH_Y230_D227G], the phosphorylation enrichment falls from 0.652 to 0.582.

Going from IGLHAYGDQFR [IDH1_Y135_R132L_YF] to MIHSAYALGGL [CPS1_Y590_R587H], the phosphorylation enrichment rises from 0.51 to 0.626.

Compared with FGVVGYLAIMF [RNF175_Y155], NVGGKYSFLKV [GRM3_Y478_YF] is lower in phosphorylation enrichment: 0.484 for the first, 0.357 for the second.

Going from DASAVYLRDFQ [PLCG2_Y242_H244R] to DFPIGYPSFLA [TBCK_Y153_YF], the phosphorylation enrichment rises from 0.452 to 0.459.

Going from KLSFSYGWALQ [ALDOB_Y302_R304W] to RIGRKYKRVRF [F8_Y442_K444R], the phosphorylation enrichment rises from 0.591 to 1.45.

Biological target: Jak2 (UniProt O60674)
Experiment: as above

Chain of Jak2 (O60674 whole entry, looked up): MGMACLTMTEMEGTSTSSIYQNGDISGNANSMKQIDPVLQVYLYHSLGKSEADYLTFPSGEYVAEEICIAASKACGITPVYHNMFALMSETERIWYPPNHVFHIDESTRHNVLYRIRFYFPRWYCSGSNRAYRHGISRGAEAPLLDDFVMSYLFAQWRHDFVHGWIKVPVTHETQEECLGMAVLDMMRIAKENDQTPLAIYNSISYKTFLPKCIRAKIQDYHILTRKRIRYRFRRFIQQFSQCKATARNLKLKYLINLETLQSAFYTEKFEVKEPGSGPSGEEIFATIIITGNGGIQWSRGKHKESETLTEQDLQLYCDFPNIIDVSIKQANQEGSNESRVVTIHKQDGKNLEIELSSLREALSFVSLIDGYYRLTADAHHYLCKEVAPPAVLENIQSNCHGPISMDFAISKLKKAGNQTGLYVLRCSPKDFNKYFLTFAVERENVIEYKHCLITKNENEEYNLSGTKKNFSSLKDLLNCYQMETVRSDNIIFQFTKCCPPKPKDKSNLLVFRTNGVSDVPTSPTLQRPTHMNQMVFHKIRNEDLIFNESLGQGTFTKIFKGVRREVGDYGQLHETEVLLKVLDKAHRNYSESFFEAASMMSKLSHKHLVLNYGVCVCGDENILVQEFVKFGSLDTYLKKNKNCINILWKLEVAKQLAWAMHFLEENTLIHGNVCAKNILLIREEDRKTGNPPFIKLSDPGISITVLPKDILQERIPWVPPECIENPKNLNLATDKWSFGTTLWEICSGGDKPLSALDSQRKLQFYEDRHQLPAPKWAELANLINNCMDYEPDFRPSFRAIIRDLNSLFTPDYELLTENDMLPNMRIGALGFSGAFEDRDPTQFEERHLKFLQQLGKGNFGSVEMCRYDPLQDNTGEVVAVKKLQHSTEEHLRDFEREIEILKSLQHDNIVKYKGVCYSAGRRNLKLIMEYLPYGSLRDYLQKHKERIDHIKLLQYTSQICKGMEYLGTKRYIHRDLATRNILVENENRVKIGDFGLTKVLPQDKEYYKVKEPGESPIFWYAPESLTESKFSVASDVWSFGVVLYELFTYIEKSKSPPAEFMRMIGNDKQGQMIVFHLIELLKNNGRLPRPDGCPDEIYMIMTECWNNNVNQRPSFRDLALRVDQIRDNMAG

Going from AKLKDYFIFNK [CCDC42_Y149_YF] to YTGDIYSSSNL [LZTR1_Y141_N143S], the phosphorylation enrichment falls from 0.759 to 0.504.

Going from VIEQRYNETWL [SLC2A4_Y56_S55R] to GIVEDYRPRFF [ACVRL1_Y421_P424R_YF], the phosphorylation enrichment rises from 0.744 to 0.816.

Going from SILAVYSKDIY [PANK2_Y400_N404I] to KCCCIYEKPRS [PPP1R11_Y64_A69S], the phosphorylation enrichment falls from 1.04 to 0.642.

First: YEEDSYVKRSQ [RET_Y905]
Second: SAPDSYIRIGN [SLC38A4_Y27_G29R]
The phosphorylation enrichment of the first is higher: 1.09 for the first, 0.52 for the second.

Compared with LFSDHYSPSGR [TMPRSS12_Y23_YF], CRAVKYLQMVG [AVPR2_Y117] is higher in phosphorylation enrichment: 0.473 for the first, 0.619 for the second.

Going from LAIERYVVVSK [RHO_Y136_C140S] to NFFEFYVDDPL [GCHFR_Y48_P53L_YF], the phosphorylation enrichment rises from 0.744 to 1.07.

Going from MFCAGYDTKQE [F10_Y407] to FSGQVYRQRRK [TH_Y230_D227G], the phosphorylation enrichment falls from 1.38 to 0.769.

Compared with IGLHAYGDQFR [IDH1_Y135_R132L_YF], MIHSAYALGGL [CPS1_Y590_R587H] is lower in phosphorylation enrichment: 0.519 for the first, 0.502 for the second.

Compared with FGVVGYLAIMF [RNF175_Y155], NVGGKYSFLKV [GRM3_Y478_YF] is lower in phosphorylation enrichment: 1.45 for the first, 0.663 for the second.

Going from DASAVYLRDFQ [PLCG2_Y242_H244R] to DFPIGYPSFLA [TBCK_Y153_YF], the phosphorylation enrichment falls from 0.894 to 0.748.

Going from KLSFSYGWALQ [ALDOB_Y302_R304W] to RIGRKYKRVRF [F8_Y442_K444R], the phosphorylation enrichment rises from 1.72 to 2.55.

Biological target: Fyn (UniProt P06241)
Experiment: as above

Chain of Fyn (P06241 whole entry, looked up): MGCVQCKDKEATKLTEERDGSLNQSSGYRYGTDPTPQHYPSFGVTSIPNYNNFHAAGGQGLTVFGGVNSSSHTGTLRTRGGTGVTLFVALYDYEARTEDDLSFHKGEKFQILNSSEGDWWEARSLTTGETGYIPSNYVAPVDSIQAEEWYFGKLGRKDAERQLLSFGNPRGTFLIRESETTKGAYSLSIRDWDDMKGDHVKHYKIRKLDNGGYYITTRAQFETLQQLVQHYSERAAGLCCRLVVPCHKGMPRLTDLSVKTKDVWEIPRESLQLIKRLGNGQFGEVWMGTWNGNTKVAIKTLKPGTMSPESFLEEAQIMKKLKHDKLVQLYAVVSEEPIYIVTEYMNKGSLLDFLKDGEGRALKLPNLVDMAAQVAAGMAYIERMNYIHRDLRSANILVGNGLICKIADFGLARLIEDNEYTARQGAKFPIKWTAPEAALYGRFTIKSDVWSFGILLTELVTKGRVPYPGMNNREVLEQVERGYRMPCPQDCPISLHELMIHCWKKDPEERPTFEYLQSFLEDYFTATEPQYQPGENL

Compared with AKLKDYFIFNK [CCDC42_Y149_YF], YTGDIYSSSNL [LZTR1_Y141_N143S] is higher in phosphorylation enrichment: 0.465 for the first, 6.08 for the second.

First: VIEQRYNETWL [SLC2A4_Y56_S55R]
Second: GIVEDYRPRFF [ACVRL1_Y421_P424R_YF]
The phosphorylation enrichment of the first is higher: 0.538 for the first, 0.372 for the second.

Going from SILAVYSKDIY [PANK2_Y400_N404I] to KCCCIYEKPRS [PPP1R11_Y64_A69S], the phosphorylation enrichment falls from 2.43 to 2.07.

Compared with YEEDSYVKRSQ [RET_Y905], SAPDSYIRIGN [SLC38A4_Y27_G29R] is lower in phosphorylation enrichment: 0.489 for the first, 0.357 for the second.

First: LFSDHYSPSGR [TMPRSS12_Y23_YF]
Second: CRAVKYLQMVG [AVPR2_Y117]
The phosphorylation enrichment of the first is lower: 0.39 for the first, 0.405 for the second.

Compared with LAIERYVVVSK [RHO_Y136_C140S], NFFEFYVDDPL [GCHFR_Y48_P53L_YF] is lower in phosphorylation enrichment: 0.596 for the first, 0.436 for the second.

Compared with MFCAGYDTKQE [F10_Y407], FSGQVYRQRRK [TH_Y230_D227G] is higher in phosphorylation enrichment: 0.539 for the first, 0.774 for the second.

Compared with IGLHAYGDQFR [IDH1_Y135_R132L_YF], MIHSAYALGGL [CPS1_Y590_R587H] is higher in phosphorylation enrichment: 0.502 for the first, 0.566 for the second.

Going from FGVVGYLAIMF [RNF175_Y155] to NVGGKYSFLKV [GRM3_Y478_YF], the phosphorylation enrichment falls from 0.519 to 0.306.

Compared with DASAVYLRDFQ [PLCG2_Y242_H244R], DFPIGYPSFLA [TBCK_Y153_YF] is lower in phosphorylation enrichment: 0.562 for the first, 0.517 for the second.

Compared with KLSFSYGWALQ [ALDOB_Y302_R304W], RIGRKYKRVRF [F8_Y442_K444R] is higher in phosphorylation enrichment: 0.503 for the first, 1.35 for the second.
